Where no end group is shown, it is not given here.
T1: biotinylated BPS HBx peptide a.a. 89–104 (Hepatitis B virus genotype B, isolate …, UniProt P20975, strain, also: biotinylated)
T1 construct: HBx of hepatitis B virus genotype B isolate BPS, a.a; a.a; also called peptide harboring a.a; source: synthetic peptide (GL Biochem)
T1 chain: LPKVLHKRTLGLSAMS


Columns and labels:
[1] = biological target: mouse monoclonal antibody against HBx (anti-HBx 2A7); assay: Western blot with densitometry; details: HEK293T lysates; 2A7 signal adjusted against anti-FLAG signal, normalized against BPS HBx; parent: 100
[2] = biological target: T2, bacterially expressed BPS-encoded HBx protein (Hepatitis B virus genotype B, isolate …, UniProt P20975, strain); assay: ELISA; recombinant BPS HBx coated at 100 ng/well in bicarbonate/carbonate buffer pH 9.6; purified antibody added, 37 °C for 1 h; HRP anti-mouse pAb; OD450; details: both partners purified
T2 construct: HBx (X protein) of hepatitis B virus genotype B isolate BPS; also called recombinant HBx protein; BPS HBx (ELISA); source: bacterially expressed, purified under denaturing conditions

[3] = biological target: T1, biotinylated BPS HBx peptide a.a. 89–104; assay: ELISA; biotinylated 16-mer HBx peptides captured on streptavidin-coated plates at 500 ng/well in PBS; antibody added, 37 °C for 1 h; HRP anti-mouse pAb; OD450; details: both partners purified
[4] = biological target: T3, FLAG-tagged WT (genotype C isolate) HBx (Hepatitis B virus genotype C, isolate …, UniProt P0C686, strain); assay: Western blot; lysates of HEK293T cells transfected with FLAG-tagged HBx variants, 48 hours, resolved and blotted; probed with 2A7; anti-FLAG as control; densitometry normalised to anti-FLAG and to BPS HBx; details: one partner purified
T3 construct: 'WT' is here the name of an isolate, not 'wild type'; also called WT HBx; source: HEK293T, transfected, in lysate or in fixed cells; not shown: FLAG, N-terminal, kept

[5] = biological target: T1, biotinylated BPS HBx peptide a.a. 89–104; assay: ELISA; biotinylated 16-mer HBx peptides captured on streptavidin-coated plates; secreted Igκ-VHVL-Fc added; HRP anti-human Fc pAb; OD450; details: one partner purified
[6] = biological target: T4, FLAG-tagged wild type BPS HBx (Hepatitis B virus genotype B, isolate …, UniProt P20975, strain); assay: co-IP; HEK293T co-transfected with Igκ-VHVL-Fc and FLAG-tagged wild type or mutant BPS HBx; lysate; anti-FLAG as capture antibody; blots with anti-hFc and anti-FLAG; details: partners not purified
T4 construct: HBx (X protein) of hepatitis B virus genotype B isolate BPS, 154 a.a; also called FLAG-HBx (wild type); wild-type HBx; source: HEK293T, transfected, in lysate or in fixed cells; HepG2, transfected, in lysate; not shown: FLAG, N-terminal, kept

| Molecule | percent of parent [1] | also measured |
| --- | --- | --- |
| FLAG-tagged wild type BPS HBx 77-79 (3 Ala) | 97% |  |
| FLAG-tagged wild type BPS HBx 80-82 (3 Ala) | 450% |  |
| FLAG-tagged wild type BPS HBx 98-100 (3 Ala) | 140% |  |
| FLAG-tagged wild type BPS HBx 101-103 (3 Ala) | 296% |  |
| FLAG-tagged wild type BPS HBx 104-106 (3 Ala) | 187% |  |
| FLAG-tagged wild type BPS HBx H86A; R87A; N88A | 334% |  |
| FLAG-tagged wild type BPS HBx H94A | 0% |  |
| FLAG-tagged wild type BPS HBx K91A | 36% |  |
| FLAG-tagged wild type BPS HBx K95A | 0% |  |
| FLAG-tagged wild type BPS HBx K95A; R96A; T97A | 0% |  |
| FLAG-tagged wild type BPS HBx L89A | 151% |  |
| FLAG-tagged wild type BPS HBx L89A; P90A; K91A | 36% |  |
| FLAG-tagged wild type BPS HBx L93A | 25% |  |
| FLAG-tagged wild type BPS HBx L98A | 90% |  |
| FLAG-tagged wild type BPS HBx P90A | 7% |  |
| FLAG-tagged wild type BPS HBx R96A | 81% |  |
| FLAG-tagged wild type BPS HBx T97A | 99% |  |
| FLAG-tagged wild type BPS HBx V83A; N84A | 349% |  |
| FLAG-tagged wild type BPS HBx V92A | 2% |  |
| FLAG-tagged wild type BPS HBx V92A; L93A; H94A | 0% |  |
| mouse monoclonal antibody against HBx (anti-HBx 2A7) (antibody, V domains shown, 2A7 VH; 2A7 CH, mapped to mouse IGHG1 (immunoglobulin heavy constant gamma 1); 2A7 VL1; 2A7 CK, κ-type light chain constant region; IgG1 subclass, κ light chain (VL1/CK and VH/CH confirmed by LC-MS/MS); also called anti-HBx mAb 2A7; 2A7 mAb; source: SP2/0 hybridoma cell line, purified; also recovered from lysed Huh-7 or HepG2 cells after delivery with TR16-Tat) VH: QVTLKESGPGILQPSQTLSLTCSFSGFSLSTSGMGVVWIRQPSGKGLEWLAHIWWDDDKYYNTALKSGLTISKDTSKNQVFLKIASVDTADTATYYCARMPYYDYDGGVAYWGQGTLVTVSA VL: DIVMTQSPASLVVSLGQRATISCRASKSVSTSGYSYMYWYQQKPGQPPKLLIYLASNLESGVPARFSGSGSGTDFTLNIHPVEEEDAATYYCQHSRELPLTFGAGTKLELK |  | binding result [2]: binds; binding result [3]: binds; binding result [4]: binds |
| recombinant 2A7 antibody (antibody, V domains shown, as the VH of m1 (2A7 VH); mouse IgG2a heavy chain constant fragment; as the VL of m1 (2A7 VL1); mouse κ light chain constant fragment; source: Expi293F cells, co-transfected, purified from culture supernatant (Protein A)) VH: QVTLKESGPGILQPSQTLSLTCSFSGFSLSTSGMGVVWIRQPSGKGLEWLAHIWWDDDKYYNTALKSGLTISKDTSKNQVFLKIASVDTADTATYYCARMPYYDYDGGVAYWGQGTLVTVSA VL: DIVMTQSPASLVVSLGQRATISCRASKSVSTSGYSYMYWYQQKPGQPPKLLIYLASNLESGVPARFSGSGSGTDFTLNIHPVEEEDAATYYCQHSRELPLTFGAGTKLELK |  | binding result [3]: binds |
| Igκ-VHVL(2A7)-Fc (scFv, V domains shown, as the VH of m1 (2A7 VH); linker, printed as (GlyGlyGlyGlySer)3; as the VL of m1 (2A7 VL1); also called Igκ-VHVL-Fc; 2A7-derived scFv; source: HEK293T, transfected; secreted into supernatant, or in cell lysate; not shown: Fc (human IgG1), C-terminal, kept) VH: QVTLKESGPGILQPSQTLSLTCSFSGFSLSTSGMGVVWIRQPSGKGLEWLAHIWWDDDKYYNTALKSGLTISKDTSKNQVFLKIASVDTADTATYYCARMPYYDYDGGVAYWGQGTLVTVSA VL: DIVMTQSPASLVVSLGQRATISCRASKSVSTSGYSYMYWYQQKPGQPPKLLIYLASNLESGVPARFSGSGSGTDFTLNIHPVEEEDAATYYCQHSRELPLTFGAGTKLELK |  | binding result [5]: binds; binding result [6]: binds |
